Consider 22 molecules from article PMC3711439, “Mechanisms of in vivo binding site selection of the hematopoietic master transcription factor PU.1”.

B1: PU.1 motif oligo 7 (dsDNA)
DNA 1: ACGTCAGTTCCTCTTTACGT
DNA 2: ACGTAAAGAGGAACTGACGT
B2: PU.1 motif oligo 66 (dsDNA)
DNA 1: ACGTCAGTTCTCTTTTACGT
DNA 2: ACGTAAAAGAGAACTGACGT
B3: PU.1 motif oligo 68 (dsDNA)
DNA 1: ACGTGACTTCTGCTTTACGT
DNA 2: ACGTAAAGCAGAAGTCACGT
B4: PU.1 motif oligo 65 (dsDNA)
DNA 1: ACGTTTCTTCCTCTTCACGT
DNA 2: ACGTGAAGAGGAAGAAACGT
B5: PU.1 motif oligo 73 (dsDNA)
DNA 1: ACGTAACTTCTTCAAAACGT
DNA 2: ACGTTTTGAAGAAGTTACGT
B6: PU.1 motif oligo 67 (dsDNA)
DNA 1: ACGTGACTTCCTTCACACGT
DNA 2: ACGTGTGAAGGAAGTCACGT
B7: PU.1 motif oligo 8 (dsDNA)
DNA 1: ACGTCACTTCCCCTTAACGT
DNA 2: ACGTTAAGGGGAAGTGACGT
B8: PU.1 motif oligo 63 (dsDNA)
DNA 1: ACGTCACTTCCACAGTACGT
DNA 2: ACGTACTGTGGAAGTGACGT
B9: PU.1 motif oligo 75 (dsDNA)
DNA 1: ACGTCAGTTCTGCATTACGT
DNA 2: ACGTAATGCAGAACTGACGT
B10: PU.1 motif oligo 72 (dsDNA)
DNA 1: ACGTAATTTCCTCATCACGT
DNA 2: ACGTGATGAGGAAATTACGT
B11: PU.1 motif oligo 69 (dsDNA)
DNA 1: ACGTCAGTTCTGCTTTACGT
DNA 2: ACGTAAAGCAGAACTGACGT
B12: PU.1 motif oligo 70 (dsDNA)
DNA 1: ACGTATCTTCCTCACTACGT
DNA 2: ACGTAGTGAGGAAGATACGT
B13: PU.1 motif oligo 10 (dsDNA)
DNA 1: ACGTCACTTCCTGTTTACGT
DNA 2: ACGTAAACAGGAAGTGACGT
B14: PU.1 motif oligo 62 (dsDNA)
DNA 1: ACGTCTCTTCCTCCCTACGT
DNA 2: ACGTAGGGAGGAAGAGACGT
B15: PU.1 motif oligo 9 (dsDNA)
DNA 1: ACGTCACTTCCTCTCAACGT
DNA 2: ACGTTGAGAGGAAGTGACGT
B16: PU.1 motif oligo 64 (dsDNA)
DNA 1: ACGTGACTTCCACAATACGT
DNA 2: ACGTATTGTGGAAGTCACGT
B17: PU.1 motif oligo 59 (dsDNA)
DNA 1: ACGTAACTTCTTCCTTACGT
DNA 2: ACGTAAGGAAGAAGTTACGT
B18: PU.1 motif oligo 61 (dsDNA)
DNA 1: ACGTATCTTCCTCATAACGT
DNA 2: ACGTTATGAGGAAGATACGT
B19: PU.1 motif oligo 74 (dsDNA)
DNA 1: ACGTCTCTTCCTTAAAACGT
DNA 2: ACGTTTTAAGGAAGAGACGT
B20: PU.1 motif oligo 71 (dsDNA)
DNA 1: ACGTTGCTTCCTCCCTACGT
DNA 2: ACGTAGGGAGGAAGCAACGT
B21: PU.1 motif oligo 60 (dsDNA)
DNA 1: ACGTCGCTTCCTTCCTACGT
DNA 2: ACGTAGGAAGGAAGCGACGT
B22: PU.1 motif oligo 58 (dsDNA)
DNA 1: ACGTCACTTCCCCAGGACGT
DNA 2: ACGTCCTGGGGAAGTGACGT

This data set has as its target PU.1 (human, UniProt P17947 1-270). Nature of the data set: MST; MST: 20 mM Tris-HCl pH 7.6, 1.5 mM MgCl2, 0.5 mM EGTA, 10% glycerol, 300 mM KCl, 10 mM DTT, 25 C; 50 nM Cy3-dsDNA, PU.1 1:1 dilutions from 23 uM. Conditions: protein: recombinant; tags: N-terminal His-tag; label: Cy3 on upper strand.
Consider B1, for which the Kd stood at 222 ± 45 nM. On to B2, for which the Kd came to 2000 ± 40 nM.

For B3, the Kd is 828 ± 51 nM. The figure for B4 is 872 ± 57 nM. Then B5, with 1520 ± 580 nM. B6: the Kd amounted to 1240 ± 370 nM. The figure for B7 is 441 ± 18 nM; for B8 it is 1930 ± 220 nM. The figure for B9 is 1190 ± 140 nM; for B10 it is 1080 ± 251 nM. With B11, the Kd turned out to be 909 ± 28 nM.

As to B12, the Kd was 2020 ± 100 nM. Then B13, with 175 ± 16 nM; and B14, with 1940 ± 1260 nM; and B15, with 676 ± 67 nM.

With B16, the Kd amounted to 1220 ± 350 nM. Then B17, with 1620 ± 20 nM; and B18, with 790 ± 77 nM.

Take B19: the Kd was determined as 1150 nM. Then B20, with 2200 ± 1640 nM; and B21, with 1895 ± 10 nM; and B22, with 1070 ± 229 nM.
